Test results from article PMC3742313.

Experiments:
[1] = molecular target: GM-CSF receptor on TF-1 cells (human (endogenous in TF-1)) (UniProt P32927); experiment: radioligand binding
[2] = molecular target: GM-CSF receptor on human CD34+ cord blood cells (human (endogenous in CD34+ cord blood cells)) (UniProt P32927); experiment: radioligand binding

percent by which the IC50 is less than for full-length GM-CSF [1] | KD of the high-affinity site [2] | Substance
88% | – | unlabeled DPP4-truncated recombinant human GM-CSF (ligand)
– | 734 pM | DPP4-truncated recombinant human [125I]-GM-CSF (ligand)
